From patent publication US20150118238A1 (Eli Lilly, published 2015)

Assays:
human c-Met-ECD-Fc-Flis [1] = biological target: T1, human c-Met-ECD-Fc-Flis (human); test: SPR (BIAcore), antibody captured by goat anti-mouse Fc, c-Met-ECD-Fc-Flis as analyte, 25 C, 1:1 model, n=2
T1 construct: Expressed in CHO cells; also called c-Met-ECD with Fc and Flis tag; ECD of human c-MET

[2] = biological target: T2, RON on RON-transfected NIH 3T3 cells (UniProt Q04912 25-1400, limits assumed); test: IHC on FFPE cell microarray (Dako EnVision FLEX+), manual reading by brightfield microscope
T2 construct: whole, on cells; Formalin-fixed paraffin-embedded cell pellets in IHC; also called RON transfected NIH3T3 Cell Line
Description: For staining human tumor cell lines, 60 million cells may be harvested, formalin-fixed, and processed into histogel. The histogel cell pellets may be embedded into paraffin blocks, cored, and designed into a cell microarray that may be re-embedded in a paraffin block and then microtomed onto slides. These slides may be immunohistochemically stained and counterstained using the IHC assay protocol as described above in Example 7. RON-transfected NIH 3T3 cells and mock NIH 3T3 cells (mouse embryonic fibroblasts) are used as non-c-MET expressing negative controls.

[3] = biological target: T3, ECD of human RON (R&D Systems, #1947-MS-050) (human, UniProt Q04912 25-957); test: IHC pre-absorption/blocking: Antibody II at 2 microgram/mL incubated overnight with RON ECD, then used to stain slides
T3 construct: extracellular domain; Bought reagent; also called MST1R
Procedure: The antibody, or antigen-binding fragment thereof, of the present invention at 2 microgram/mL may be incubated overnight with either c-Met-ECD-Fc-Flis (SEQ ID NO: 23) or the ECD of human RON (R&D Systems, #1947-MS-050) at 200× molar excess on a rotator at 4° C. After overnight incubation, the antibody, or antigen-binding fragment thereof, of the present invention may be tested against slides of human tissue or cancer cell lines as described above in Example 6.

human c-Met-ECD-Fc-Flis [4] = biological target: T1, human c-Met-ECD-Fc-Flis; test: SPR (BIAcore)

T1 sequence (chain, as listed by the source limits assumed): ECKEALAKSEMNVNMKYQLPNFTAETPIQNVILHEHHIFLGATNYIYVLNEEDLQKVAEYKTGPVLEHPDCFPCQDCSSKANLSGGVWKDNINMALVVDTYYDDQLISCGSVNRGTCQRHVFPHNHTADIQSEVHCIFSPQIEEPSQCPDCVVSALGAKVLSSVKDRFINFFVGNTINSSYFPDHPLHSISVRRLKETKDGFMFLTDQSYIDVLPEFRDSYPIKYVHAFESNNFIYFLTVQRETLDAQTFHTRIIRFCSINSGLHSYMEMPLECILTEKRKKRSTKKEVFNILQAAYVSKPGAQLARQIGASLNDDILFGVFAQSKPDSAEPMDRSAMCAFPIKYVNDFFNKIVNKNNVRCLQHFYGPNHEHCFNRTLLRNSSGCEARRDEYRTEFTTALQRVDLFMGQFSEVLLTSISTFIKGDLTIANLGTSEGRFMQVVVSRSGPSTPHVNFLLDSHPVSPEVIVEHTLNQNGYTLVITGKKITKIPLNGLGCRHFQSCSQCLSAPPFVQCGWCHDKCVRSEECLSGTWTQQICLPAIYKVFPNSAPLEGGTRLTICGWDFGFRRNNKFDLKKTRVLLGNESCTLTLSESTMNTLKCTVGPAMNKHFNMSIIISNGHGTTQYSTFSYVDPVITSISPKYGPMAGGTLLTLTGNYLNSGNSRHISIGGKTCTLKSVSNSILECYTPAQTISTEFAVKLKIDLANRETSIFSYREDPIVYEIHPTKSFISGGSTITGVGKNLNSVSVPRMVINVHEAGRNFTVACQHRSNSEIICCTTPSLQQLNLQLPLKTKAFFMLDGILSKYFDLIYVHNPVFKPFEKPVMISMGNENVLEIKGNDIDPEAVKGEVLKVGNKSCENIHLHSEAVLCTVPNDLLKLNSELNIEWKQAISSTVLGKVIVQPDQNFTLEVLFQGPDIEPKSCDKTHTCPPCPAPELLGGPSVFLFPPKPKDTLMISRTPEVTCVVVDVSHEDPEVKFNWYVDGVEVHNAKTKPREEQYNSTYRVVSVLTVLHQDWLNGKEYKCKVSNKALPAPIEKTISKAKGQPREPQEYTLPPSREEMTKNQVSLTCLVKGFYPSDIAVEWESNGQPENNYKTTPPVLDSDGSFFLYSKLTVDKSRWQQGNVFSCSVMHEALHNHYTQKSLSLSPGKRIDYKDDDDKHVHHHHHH

Kd (human c-Met-ECD-Fc-Flis [1]) [nM]	koff (human c-Met-ECD-Fc-Flis [1]) [s⁻¹]	kon (human c-Met-ECD-Fc-Flis [1]) [M⁻¹ s⁻¹]	binding result [2]	binding result [3]	fold binding affinity compared to Antibody I (human c-Met-ECD-Fc-Flis [4]) [fold]	Binder
2.47	0.000302	123000	–	–	–	Antibody I (antibody, V domains shown, Captured by anti-mouse Fc and detected with anti-mouse IgG; also called R-PE-Antibody I (R-phycoerythrin conjugate used in the CTC assay)) VH: EVQLQQSGTVLARPGASVKMSCKASGYSFTSYWMYWVKQRPGQGLEWIGGFHPGNSGTNYNQKFKGKAKLTAVTSASTAYMELSSLTNEDSAVYYCTRGYYYDGSFTYWGQGTLVTVSA VL: EIQMTQSPASLSASVGETVTITCRASENIYSYLAWYQRKQGRSPQLLVYNAKPLAEGVPSRFSGSGSGTQFSLKINSLQPEDFGTYYCQHHYGTPFTFGSGTRLEIKR
0.37	4.6e-05	125000	no binding (tested: 2 µg/mL)	no binding (tested: 200× molar excess)	> 5	Antibody II (antibody, V domains shown, also called R-PE-Antibody II (R-phycoerythrin conjugate used in the CTC assay); Antibody II (Anti-cMET)) VH: EVQLQQSGTVLARPGASVKMSCKASGYSFTSYWMYWVKQRPGQGLEWIGGFHPRNSGTNYNQKFKGKAKLTAVTSASTAYMELSSLTNEDSAVYYCTRGYYYDGSFTYWGQGTLVTVSA VL: EIQMTQSPASLSASVGETVTITCRASENIYSYLAWYQRKQGRSPQLLVYNAKPLAEGVPSRFSGSGSGTQFSLKINSLQPEDFGTYYCQHHYGTPFTFGSGTRLEIKR
